Results on nine molecules are retold here after patent US20100260765A1 (AstraZeneca / MedImmune, published 2010).

Experiment [1] addresses T1, human KDR (VEGFR2) on cells (human, UniProt P35968 20-1356). In words: cell-based or functional assay.
Experiment [2] addresses T1, human KDR (VEGFR2) on cells. In words: cell-based or functional assay. This is another data set of the same source.
The target is the same in experiment [3]. In words: cell-based or functional assay. This is another data set of the same source.
Experiment [4] shares this target. In words: FACS on HUVEC, hybridoma supernatant 1:50. Here is the method: HUVECs were seeded at 15,000 cells/well and incubated with 100 μL of sample supernatant (at 1:50 dilution) for one hour at 4° C. The positive control was goat anti-KDR antibody (R&D Systems, Inc.), and negative controls included irrelevant hybridoma supernatants at the same dilution. The cells were then washed and incubated with Cy5-conjugated goat anti-human antibody at 5 μg/mL and 7-Amino-Actinomycin D (7AAD) at 5 μg/mL for 15 minutes at 4° C. Bound KDR was detected using FACS analysis.

In experiment [5] the target is T2, mouse KDR (Flk-1)/Fc (Cat. #443-KD/CF, R&D Systems) (mouse, UniProt P35918 20-762).
T2 construct: Bought reagent; also called mouse VEGFR2; KDR mouse ortholog; Fc part of the bought chimera not given
In words: ELISA, plate-coated Flk-1/Fc 500 ng/mL, hybridoma supernatant 1:5. Here is the method:
The cross-reactivity of antibodies in the hybridoma supernatant was tested against KDR mouse ortholog (mouse VEGFR2, or Flk-1) and human VEGFR1 (Flt-1). Cross-reactivity was measured using an ELISA based assay.
After washing and blocking the plates, the antibody-containing supernatants were added (at 1:5 dilution) into the coated wells and incubated for one hour at room temperature. The plates were then incubated with mouse anti-human IgG 2, 3 and 4 and subsequently with goat anti-mouse IgG Fc POD, to detect and measure bound antibodies.
Background: An ELISA detects its analyte on a solid surface through an enzyme-linked reagent.

Experiment [6] has as its target T3, soluble KDR (VEGF Receptor 2 D1-7, Cat. #676490, Calbiochem) (human, UniProt P35968 20-764).
T3 construct: extracellular domain; Bought reagent; also called soluble human KDR; immobilized soluble KDR
In words: ELISA, plate-coated soluble KDR 250 ng/mL, hybridoma supernatant 1:5. Here is the method:
To screen by binding to immobilized soluble KDR, plates were coated with KDR (Calbiochem) at 250 ng/mL overnight at 4° C. After blocking and washing the coated plates, the candidate hybridoma supernatants (at 1:5 dilution) were transferred to the plates and incubated for one hour at room temperature. The plates were then washed and incubated with secondary antibody (at 1:4000 dilution) for one hour at room temperature.

T2 sequence (P35918 20-762): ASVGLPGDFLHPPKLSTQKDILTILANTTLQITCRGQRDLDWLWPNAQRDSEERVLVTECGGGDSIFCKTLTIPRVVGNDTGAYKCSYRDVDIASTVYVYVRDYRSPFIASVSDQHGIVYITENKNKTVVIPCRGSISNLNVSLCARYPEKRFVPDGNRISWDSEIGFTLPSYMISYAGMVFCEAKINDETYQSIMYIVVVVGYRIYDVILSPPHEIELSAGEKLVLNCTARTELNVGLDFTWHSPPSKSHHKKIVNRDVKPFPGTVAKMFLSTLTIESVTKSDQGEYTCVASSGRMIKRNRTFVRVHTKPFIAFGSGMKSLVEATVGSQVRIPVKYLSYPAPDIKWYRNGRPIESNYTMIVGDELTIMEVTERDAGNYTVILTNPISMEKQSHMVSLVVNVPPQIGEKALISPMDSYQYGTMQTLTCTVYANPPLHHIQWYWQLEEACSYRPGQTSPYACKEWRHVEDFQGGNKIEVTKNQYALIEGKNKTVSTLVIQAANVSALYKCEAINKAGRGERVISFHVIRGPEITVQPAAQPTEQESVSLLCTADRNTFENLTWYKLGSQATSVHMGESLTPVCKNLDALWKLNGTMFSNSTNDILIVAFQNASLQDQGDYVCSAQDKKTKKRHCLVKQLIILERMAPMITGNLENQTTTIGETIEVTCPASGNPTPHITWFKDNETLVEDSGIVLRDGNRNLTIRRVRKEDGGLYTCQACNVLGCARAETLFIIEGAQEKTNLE
T1 sequence (P35968 20-1356): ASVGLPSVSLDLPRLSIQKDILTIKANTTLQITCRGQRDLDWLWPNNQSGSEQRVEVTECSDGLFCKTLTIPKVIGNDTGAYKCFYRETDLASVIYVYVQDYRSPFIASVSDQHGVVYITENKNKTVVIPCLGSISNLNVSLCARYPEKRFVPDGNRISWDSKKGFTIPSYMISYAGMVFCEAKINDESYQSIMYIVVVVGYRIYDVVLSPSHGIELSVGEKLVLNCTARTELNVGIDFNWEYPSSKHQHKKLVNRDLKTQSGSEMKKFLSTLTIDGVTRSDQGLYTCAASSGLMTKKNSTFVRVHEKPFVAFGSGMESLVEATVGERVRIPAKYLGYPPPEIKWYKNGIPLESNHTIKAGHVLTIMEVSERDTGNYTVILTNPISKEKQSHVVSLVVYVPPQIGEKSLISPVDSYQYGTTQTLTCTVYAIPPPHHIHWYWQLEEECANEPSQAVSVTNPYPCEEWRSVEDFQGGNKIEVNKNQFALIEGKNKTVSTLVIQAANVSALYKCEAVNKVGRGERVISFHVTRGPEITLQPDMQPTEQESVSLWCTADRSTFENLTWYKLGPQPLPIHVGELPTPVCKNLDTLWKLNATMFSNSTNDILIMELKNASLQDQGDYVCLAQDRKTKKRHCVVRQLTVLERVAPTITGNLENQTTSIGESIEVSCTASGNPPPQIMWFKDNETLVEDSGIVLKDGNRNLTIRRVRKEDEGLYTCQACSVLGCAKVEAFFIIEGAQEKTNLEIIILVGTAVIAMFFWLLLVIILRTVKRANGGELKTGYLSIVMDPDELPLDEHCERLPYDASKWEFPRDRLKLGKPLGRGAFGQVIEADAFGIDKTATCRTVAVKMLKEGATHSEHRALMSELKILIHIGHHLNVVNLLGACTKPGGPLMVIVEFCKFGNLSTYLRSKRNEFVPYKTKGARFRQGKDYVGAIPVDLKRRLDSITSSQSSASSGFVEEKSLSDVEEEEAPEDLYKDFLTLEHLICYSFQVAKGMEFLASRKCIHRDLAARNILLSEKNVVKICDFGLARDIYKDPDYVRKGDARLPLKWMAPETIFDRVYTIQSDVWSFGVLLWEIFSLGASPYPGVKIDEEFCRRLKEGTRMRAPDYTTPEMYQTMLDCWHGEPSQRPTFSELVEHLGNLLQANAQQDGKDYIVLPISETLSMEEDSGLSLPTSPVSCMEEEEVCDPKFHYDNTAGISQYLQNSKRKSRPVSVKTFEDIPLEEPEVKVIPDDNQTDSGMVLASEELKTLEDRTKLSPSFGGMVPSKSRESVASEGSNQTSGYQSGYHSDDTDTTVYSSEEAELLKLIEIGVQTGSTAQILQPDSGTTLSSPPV
T3 sequence (P35968 20-764): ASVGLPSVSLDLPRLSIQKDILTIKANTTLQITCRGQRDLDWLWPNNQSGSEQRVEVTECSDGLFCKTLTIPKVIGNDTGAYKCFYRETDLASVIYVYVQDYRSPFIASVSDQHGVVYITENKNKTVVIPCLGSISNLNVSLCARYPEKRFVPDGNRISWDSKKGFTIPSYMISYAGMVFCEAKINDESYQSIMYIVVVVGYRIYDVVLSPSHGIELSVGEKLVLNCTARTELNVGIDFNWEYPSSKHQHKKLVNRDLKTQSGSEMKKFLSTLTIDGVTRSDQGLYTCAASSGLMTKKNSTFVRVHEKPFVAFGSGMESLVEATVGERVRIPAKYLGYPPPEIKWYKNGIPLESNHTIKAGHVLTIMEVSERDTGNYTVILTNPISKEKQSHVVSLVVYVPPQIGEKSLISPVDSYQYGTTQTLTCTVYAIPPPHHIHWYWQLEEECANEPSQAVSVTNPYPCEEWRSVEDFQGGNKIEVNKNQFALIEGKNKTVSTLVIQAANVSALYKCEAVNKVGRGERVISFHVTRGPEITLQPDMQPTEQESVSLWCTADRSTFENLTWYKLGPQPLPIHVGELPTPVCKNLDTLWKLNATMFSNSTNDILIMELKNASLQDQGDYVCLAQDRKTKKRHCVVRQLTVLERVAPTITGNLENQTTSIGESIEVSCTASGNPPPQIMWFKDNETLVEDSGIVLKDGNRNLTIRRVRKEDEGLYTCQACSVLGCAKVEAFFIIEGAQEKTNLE

B1: anti-KDR monoclonal antibody 29F7 (antibody, V domains shown)
VH: QVQLVQSGAEVKKPGASVKVSCKASGYTFTSYDINWVRQATGQGLEWMGWMNPNSGKTGYAQKFQGRVTMTRSTSISTAYMELSSLRSEDTAVYYCARGGYSNLGWFDPWGQGTLVTVSS
VL: DIQMTQSPSSVFASVGDRVTITCRASQGISTWLAWYQQKPGKAPKFLIYAASSLQSGVPSRFSGSGSGTDFTLTISSLQPDDFATYYCQQANNFPFTFGPGTKVDIK
notes: Fully human mAb from XenoMouse (IgG2 or IgG4 strain); hybridoma supernatant
As for B1, in experiment [1], the “% Inhibition of VEGF165-mediated pTyr Activity, Average” value (shortened to “% Inhibition … Average”) is 78%; the “% Inhibition of VEGF165-mediated pTyr Activity, n = 1” value (from here on “% Inhibition … n = 1”) amounted to 90%; the “% Inhibition of VEGF165-mediated pTyr Activity, n = 2” value (shortened to “% Inhibition … n = 2”) worked out at 67%; the “% Inhibition of VEGF165-mediated pTyr Activity, n = 3” value (“% Inhibition … n = 3” below) came to 77%. In addition, in experiment [2], the “% Inhibition of VEGF-E-mediated pTyr Activity” value came out at 45%. Besides, in experiment [3], the “HUVEC survival (n = 1) 1:10 dilution of supernatant (RLU)” value (from here on “HUVEC survival (n = 1) 1:10 dilution”) came out at 44100 RLU and the “HUVEC survival (n = 2) 1:20 dilution of supernatant (RLU)” value (shortened to “HUVEC survival (n = 2) 1:20 dilution”) amounted to 24000 RLU. The “FACS Geometric Mean” value in experiment [4] stood at 32. Besides, the “OD (450 nm)” value in experiment [5] was 0.093 OD450. Moreover, in experiment [6], the “KDR OD(450 nm)” value was 1.22 OD450.

B2: anti-KDR monoclonal antibody 33D5 (antibody, V domains shown)
VH: QVQLVQSGAEVKKPGASVKVSCKASGYTFGSYDINWVRQATGQGLEWMGWMNPNSGNTGYAQKFQGRVTLTRNTSIRTVYMELSSLRSEDTAVYYCARGGYSNLGWFDPWGQGSLVTVSS
VL: DIQMTQSPSSVSVSVGDRVTITCRASQGISSWLAWYQQKPGKAPKLLIYAASSLQSGVPSRFSGSGSGTDFTLTISSLQPEDFATYYCQQANSFPFTFGPGTKVDIK
notes: as for B1
As to B2, in experiment [1], the “% Inhibition … Average” value was 77%; the “% Inhibition … n = 1” value is 95%; the “% Inhibition … n = 2” value turned out to be 72%; the “% Inhibition … n = 3” value came to 63%. Also, the “% Inhibition of VEGF-E-mediated pTyr Activity” value in experiment [2] amounted to 30%. In experiment [3], the “HUVEC survival (n = 1) 1:10 dilution” value stood at 43400 RLU and the “HUVEC survival (n = 2) 1:20 dilution” value is 706 RLU. In addition, the “FACS Geometric Mean” value in experiment [4] was found to be 24. In addition, the “KDR OD(450 nm)” value in experiment [6] was 3.59 OD450.

B3: anti-KDR monoclonal antibody 32B2 (antibody, V domains shown)
VH: EVQLLESGGGLVQPGGSLRLSCAASGFTFSNYAMSWVRQAPGKGLDWVSAISGRGGSTYYADSVKGRFTISRDNSKNTLFLLMNSLRAEDTAVYYCAKASGDDWGQGTLVTVSS
VL: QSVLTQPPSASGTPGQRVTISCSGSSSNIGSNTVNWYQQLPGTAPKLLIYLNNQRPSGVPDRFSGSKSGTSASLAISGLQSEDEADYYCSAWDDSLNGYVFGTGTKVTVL
notes: as for B1
With B3, in experiment [1], the “% Inhibition … Average” value was 77%; the “% Inhibition … n = 1” value was 91%; the “% Inhibition … n = 2” value was 75%; the “% Inhibition … n = 3” value amounted to 66%. Further, in experiment [2], the “% Inhibition of VEGF-E-mediated pTyr Activity” value was 15%. In addition, in experiment [3], the “HUVEC survival (n = 1) 1:10 dilution” value was 19300 RLU and the “HUVEC survival (n = 2) 1:20 dilution” value came out at 400 RLU. In addition, the “FACS Geometric Mean” value in experiment [4] is 26. Besides, the “KDR OD(450 nm)” value in experiment [6] amounted to 1.11 OD450.

B4: anti-KDR monoclonal antibody 29A11 (antibody, V domains shown)
VH: EVQLLESGGGLVQPGGSLRLSCAASGFTFSNYAMNWVRQAPGKGLEWVSAISGGGGNTYYADSVKGRFTISRDNSKNTLYLQMNRLRAEDTAVYYCAKASGDDWGQGTLVTVSS
VL: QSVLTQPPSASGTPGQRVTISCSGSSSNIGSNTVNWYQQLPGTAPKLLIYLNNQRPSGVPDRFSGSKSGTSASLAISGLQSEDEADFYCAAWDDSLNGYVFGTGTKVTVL
notes: as for B1
With B4, in experiment [1], the “% Inhibition … Average” value was 78%; the “% Inhibition … n = 1” value was 96%; the “% Inhibition … n = 2” value worked out at 72%; the “% Inhibition … n = 3” value stood at 66%. The “% Inhibition of VEGF-E-mediated pTyr Activity” value in experiment [2] came to 15%. For the same molecule, in experiment [3], the “HUVEC survival (n = 1) 1:10 dilution” value stood at 34600 RLU and the “HUVEC survival (n = 2) 1:20 dilution” value turned out to be 27700 RLU. Further, the “FACS Geometric Mean” value in experiment [4] was 31. Moreover, in experiment [6], the “KDR OD(450 nm)” value was 3.53 OD450.

B5: anti-KDR monoclonal antibody 30E3 (antibody, V domains shown)
VH: EVQLLESGGGLVQPGGSLRLSCAASGFTFSNYALSWVRQAPGKGLEWVSAISGSGRNTYYADSVKGRFTLSRDNSKNTLFLQMNSLRAEDTAVYYCAKASGDNWGQGTLVTVSS
VL: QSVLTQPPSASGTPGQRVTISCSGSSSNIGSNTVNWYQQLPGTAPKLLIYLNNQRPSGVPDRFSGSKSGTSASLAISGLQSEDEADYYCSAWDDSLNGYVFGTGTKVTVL
notes: Fully human mAb from XenoMouse (IgG2 or IgG4 strain); hybridoma supernatant; also called 30E3.1; 30E3.2
Regarding B5, in experiment [1], the “% Inhibition … Average” value came to 71%; the “% Inhibition … n = 1” value is 89%; the “% Inhibition … n = 2” value was found to be 67%; the “% Inhibition … n = 3” value turned out to be 58%. For the same molecule, in experiment [2], the “% Inhibition of VEGF-E-mediated pTyr Activity” value was found to be 19%. In experiment [3], the “HUVEC survival (n = 1) 1:10 dilution” value is 37500 RLU and the “HUVEC survival (n = 2) 1:20 dilution” value stood at 30400 RLU. In addition, in experiment [4], the “FACS Geometric Mean” value is 36. In addition, the “KDR OD(450 nm)” value in experiment [6] was determined as 4.18 OD450.

B6: anti-KDR monoclonal antibody 29A3 (antibody, V domains shown)
VH: QVQLQESGPGLVKPSETLSLTCTVSGGSISSYFWSWIRQPAGKGLEWIGRIYFSGRTNYNPSLKSRVTMSVETSKNQFSLKLNSVTAADTAVYYCARDGGWNYDVAFDYWGQGTLVTVSS
VL: QAVLTQPSSLSASPGASASLTCTLRSGINVGTYRIYWYQQKPGSPPQYLLRYKSDSDQLQGSGVPSRFSGSKDASANAGILLISGLQSEDEADYYCMVWHSNTWVFGGGTKLTVL
notes: as for B1
B6: in experiment [1], the “% Inhibition … Average” value came to 77%; the “% Inhibition … n = 1” value stood at 92%; the “% Inhibition … n = 2” value was determined as 66%; the “% Inhibition … n = 3” value came to 72%. Further, the “% Inhibition of VEGF-E-mediated pTyr Activity” value in experiment [2] came to 22%. In addition, in experiment [3], the “HUVEC survival (n = 1) 1:10 dilution” value was found to be 36400 RLU and the “HUVEC survival (n = 2) 1:20 dilution” value amounted to 2450 RLU. Further, the “FACS Geometric Mean” value in experiment [4] was 30. Also, the “KDR OD(450 nm)” value in experiment [6] worked out at 0.814 OD450.

B7: anti-KDR monoclonal antibody 30D7 (antibody, V domains shown)
VH: QVPLVESGGGVVQPGRSLRLSCAASGFTFSSYGMHWVRQAPGKGLEWVAVIWYDGSNKYYADSVKGRFTISRDNSKNTLYLQMNSLRAEDTAVYYCARGVTMVRGVIIARYYYGLDVWGQGTTVTVSS
VL: DIVMTQTPLSSPVTLGQPASISCRSSQSLVHSDGNTYLSWLQQRPGQPPRLLIYKISNRFFGVPDRFSGSGAGTDFTLKIGRVEAEDVGLYYCMQSTQFPLTFGGGTKVEIK
notes: as for B1
As to B7, in experiment [1], the “% Inhibition … Average” value turned out to be 76%; the “% Inhibition … n = 1” value was found to be 99%; the “% Inhibition … n = 2” value came out at 71%; the “% Inhibition … n = 3” value amounted to 59%. In experiment [2], the “% Inhibition of VEGF-E-mediated pTyr Activity” value turned out to be 24%. Also, in experiment [3], the “HUVEC survival (n = 1) 1:10 dilution” value stood at 28300 RLU and the “HUVEC survival (n = 2) 1:20 dilution” value turned out to be 2520 RLU. Besides, the “FACS Geometric Mean” value in experiment [4] was 31. In experiment [6], the “KDR OD(450 nm)” value turned out to be 3.45 OD450.

B8: anti-KDR monoclonal antibody 1G6 (antibody, V domains shown)
VH: EVQLLESGGGLVQPGGSLRLSCAASGFTFSSYAMSWVRQAPGKGLEWVSAISGGGGNTYYADSVKGRFTISRDNSKNTLYLQMNSLRAEDTAVYYCSKVATDYWGQGTLVTVSS
VL: QPVLTQSSSASASLGSSVKLTCTLSSGHSSYIIAWHQQQPGKAPRYLMKLEGSGSYNKGSGVPDRFSGSSSGADRYLTISNLQFEDEADYYCETWDSYTVVFGGGTKLTVL
notes: Fully human mAb from XenoMouse (IgG2 or IgG4 strain); tested here as hybridoma supernatant
With B8, in experiment [1], the “% Inhibition … Average” value stood at 71%; the “% Inhibition … n = 1” value amounted to 89%; the “% Inhibition … n = 2” value came out at 67%; the “% Inhibition … n = 3” value is 58%. In experiment [2], the “% Inhibition of VEGF-E-mediated pTyr Activity” value came out at 24%. For the same molecule, in experiment [3], the “HUVEC survival (n = 1) 1:10 dilution” value came to 47800 RLU and the “HUVEC survival (n = 2) 1:20 dilution” value turned out to be 10200 RLU. Besides, the “FACS Geometric Mean” value in experiment [4] was found to be 32. In experiment [5], the “OD (450 nm)” value stood at 0.055 OD450. In experiment [6], the “KDR OD(450 nm)” value was found to be 6 OD450.

B9: anti-KDR monoclonal antibody 24C9 (antibody, V domains shown)
VH: EVQLVESGGGLVKPGGSLRLSCAASGFTFSTYSMNWVRQAPGKGLEWVSFISGRSSYIYYADSVKGRFTISRDNAKNSLYLQMNSLRAEDTAVYYCSKDDWFEELWGQGTLVTVSS
VL: DIQMTQSPSSLSASVGDRVTITCRASQGIRNDLGWYQQKPGKAPKRLIYATFSLQSGVPSRFSGSGSGTEFTLTISSLQPEDFATYYCLQHNRYPWTFGQGTKVEIK
notes: as for B1
On to B9, for which, in experiment [1], the “% Inhibition … Average” value worked out at 46%; the “% Inhibition … n = 1” value was determined as 55%; the “% Inhibition … n = 2” value was 45%; the “% Inhibition … n = 3” value came out at 38%. Further, the “% Inhibition of VEGF-E-mediated pTyr Activity” value in experiment [2] came out at 51%. Further, in experiment [3], the “HUVEC survival (n = 1) 1:10 dilution” value is 14600 RLU and the “HUVEC survival (n = 2) 1:20 dilution” value worked out at 9180 RLU. Further, in experiment [4], the “FACS Geometric Mean” value came out at 33. The “OD (450 nm)” value in experiment [5] came to 0.098 OD450. The “KDR OD(450 nm)” value in experiment [6] was determined as 0.55 OD450.
